Target: purified SARS-CoV-2 RBD (limits of the construct not stated) (SARS-CoV-2, UniProt P0DTC2 331-550)
Assay: told in the legend of the ELISA figure (Fig. 38)

B1: S309-14 (S309 with VH W105F mutation) (antibody, V domains shown)
VH: not shown
VL: EIVLTQSPGTLSLSPGERATLSCRASQTVSSTSLAWYQQKPGQAPRLLIYGASSRATGIPDRFSGSGSGTDFTLTISRLEPEDFAVYYCQQHDTSLTFGGGTKVEIK
  binding result: binds
